Like-named read-outs stand apart in the source and are kept apart here.

Results on 21 substances are retold here after patent US20180346600A1.

Common to all, as to assay: HEK293-F co-expression, Protein A purification, non-reducing SDS-PAGE densitometry
For assay [1], the target named is scFv-FcCH3A, B168 (D399L/K409W) (human) [IgG part: P0DOX5].
For assay [2], the target named is scFv-FcCH3A, B121 (D399E/K409W) (human) [IgG part: P0DOX5].
For assay [3], the target named is scFv-FcCH3A, B212 (K392I/D399L) (human) [IgG part: P0DOX5].
The target of assay [4] is scFv-FcCH3A, B135 (D399L/K409W) (human) [IgG part: P0DOX5].
For assay [5], the target named is scFv-FcCH3A, B168w/oW-VT (D399L) (human) [IgG part: P0DOX5].
Assay [6] has the same target. This is another data set of the same source.
For assay [7], the target named is scFv-FcCH3A, B256 (K392N/D399L) (human) [IgG part: P0DOX5].
Assay [8] deals with scFv-FcCH3A, A241 (E357N/S364W/K370E) (human) [IgG part: P0DOX5].
Assay [9] deals with scFv-FcCH3A, A146w/oW-VT (K370D) (human) [IgG part: P0DOX5].
Assay [10] deals with scFv-FcCH3A, A109w/oW-VT (K370M) (human) [IgG part: P0DOX5].
For assay [11], the target named is scFv-FcCH3A, A109 (K370M/K409W) (human) [IgG part: P0DOX5].
Assay [12] concerns the target scFv-FcCH3A, EW-RVT (K360E/K409W) (human).
For assay [13] the target is unchanged. The source holds these as a separate data set.
Assay [14] has as its target scFv-FcCH3A, B215 (K392R/K409R/D399L) (human) [IgG part: P0DOX5].
The target in assay [15] is scFv-FcCH3A, W-VT (K409W) (human) [IgG part: P0DOX5].
The target in assay [16] is scFv-FcCH3A, A210 (E357A/S364Y/K370E) (human) [IgG part: P0DOX5].
Assay [17] addresses scFv-FcCH3A, B239 (K392L/D399L) (human) [IgG part: P0DOX5].
The target of assay [18] is scFv-FcCH3A, A107w/oW-VT (K370E) (human) [IgG part: P0DOX5].
Assay [19] shares this target. The source holds these as a separate data set.
For assay [20], the target named is scFv-FcCH3A, A107 (K370E/K409W) (human) [IgG part: P0DOX5].
Assay [21] addresses scFv-FcCH3A, B235 (K392C/D399L) (human) [IgG part: P0DOX5].
Assay [22] concerns the target scFv-FcCH3A, A216 (E357G/S364W/K370E) (human) [IgG part: P0DOX5].
Assay [23] addresses scFv-FcCH3A, B240 (K392S/K409R/D399L) (human) [IgG part: P0DOX5].
The target of assay [24] is scFv-FcCH3A, A205 (E357D/S364W/K370E) (human) [IgG part: P0DOX5].

With “scFv-FcCH3A, B168 (D399L/K409W) (from UniProt P0DOX5 227-449) (Fc fusion)”, the (scFv-Fc)2 (homodimer)(%) in assay [1] is 1.2%.

On to “scFv-FcCH3A, B121 (D399E/K409W) (from UniProt P0DOX5 227-449) (Fc fusion)”, for which the (scFv-Fc)2 (homodimer)(%) in assay [2] worked out at 1.5%.

The substance “scFv-FcCH3A, B212 (K392I/D399L) (from UniProt P0DOX5 227-449) (Fc fusion)” yielded a (scFv-Fc)2 (homodimer)(%) in assay [3] of 0.9%.

The substance “scFv-FcCH3A, B135 (D399L/K409W) (from UniProt P0DOX5 227-449) (Fc fusion)” gave a (scFv-Fc)2 (homodimer)(%) in [4] of 4.1%.

Consider “scFv-FcCH3A, B168w/oW-VT (D399L) (from UniProt P0DOX5 227-449) (Fc fusion)”, for which the (scFv-Fc)2 (homodimer)(%) in assay [5] came out at 1.5%; in assay [6] it was 1.6%.

For “scFv-FcCH3A, B256 (K392N/D399L) (from UniProt P0DOX5 227-449) (Fc fusion)”, the (scFv-Fc)2 (homodimer)(%) in [7] is 3.9%.

“scFv-FcCH3A, A241 (E357N/S364W/K370E) (from UniProt P0DOX5 227-449) (Fc fusion)” gave a (scFv-Fc)2 (homodimer)(%) in [8] of 15.7%.

In assay [9], “scFv-FcCH3A, A146w/oW-VT (K370D) (from UniProt P0DOX5 227-449) (Fc fusion)” registered a (scFv-Fc)2 (homodimer)(%) of 4.6%.

Consider “scFv-FcCH3A, A109w/oW-VT (K370M) (from UniProt P0DOX5 227-449) (Fc fusion)”, for which the (scFv-Fc)2 (homodimer)(%) in [10] was 5.6%.

In [11], “scFv-FcCH3A, A109 (K370M/K409W) (from UniProt P0DOX5 227-449) (Fc fusion)” gave a (scFv-Fc)2 (homodimer)(%) of 0.5%.

Take “scFv-FcCH3A, EW-RVT (K360E/K409W) (Fc fusion)”: the (scFv-Fc)2 (homodimer)(%) in assay [12] and in assay [13] was 0.5% in each case.

“scFv-FcCH3A, B215 (K392R/K409R/D399L) (from UniProt P0DOX5 227-449) (Fc fusion)” displayed a (scFv-Fc)2 (homodimer)(%) in assay [14] of 1.9%.

Turning to “scFv-FcCH3A, W-VT (K409W) (from UniProt P0DOX5 227-449) (Fc fusion)”, the (scFv-Fc)2 (homodimer)(%) in assay [15] is 1.4%.

As to “scFv-FcCH3A, A210 (E357A/S364Y/K370E) (from UniProt P0DOX5 227-449) (Fc fusion)”, the (scFv-Fc)2 (homodimer)(%) in assay [16] turned out to be 9.9%.

With “scFv-FcCH3A, B239 (K392L/D399L) (from UniProt P0DOX5 227-449) (Fc fusion)”, the (scFv-Fc)2 (homodimer)(%) in assay [17] came out at 3.4%.

Turning to “scFv-FcCH3A, A107w/oW-VT (K370E) (from UniProt P0DOX5 227-449) (Fc fusion)”, the (scFv-Fc)2 (homodimer)(%) in assay [18] and in assay [19] was 21.3% in each case.

Take “scFv-FcCH3A, A107 (K370E/K409W) (from UniProt P0DOX5 227-449) (Fc fusion)”: the (scFv-Fc)2 (homodimer)(%) in assay [20] amounted to 4.2%.

Turning to “scFv-FcCH3A, B235 (K392C/D399L) (from UniProt P0DOX5 227-449) (Fc fusion)”, the (scFv-Fc)2 (homodimer)(%) in assay [21] is 3.7%.

“scFv-FcCH3A, A216 (E357G/S364W/K370E) (from UniProt P0DOX5 227-449) (Fc fusion)”: the (scFv-Fc)2 (homodimer)(%) in assay [22] is 1.5%.

In the case of “scFv-FcCH3A, B240 (K392S/K409R/D399L) (from UniProt P0DOX5 227-449) (Fc fusion)”, the (scFv-Fc)2 (homodimer)(%) in [23] worked out at 4.8%.

In assay [24], “scFv-FcCH3A, A205 (E357D/S364W/K370E) (from UniProt P0DOX5 227-449) (Fc fusion)” had a (scFv-Fc)2 (homodimer)(%) of 1%.
